Experiments:
Flag-mCherry-ColE8-6His [1] = target: T1, Flag-mCherry-ColE8-6His (Escherichia coli); assay: EIA 8 plex n° 1: colicin coated at 100 nM, Im-RLuc8 alone at 100 nM, luciferase signal (FIG. 3, light grey bars)
T1 construct: also called Colicin E8

[2] = target: T2, Flag-mCherry-ColAP41-Cys-6His (Pseudomonas aeruginosa AP41); assay: EIA 8 plex n° 2: colicin coated at 100 nM, Im-RLuc8 at 100 nM, luminescence; light bar alone, dark bar with the 7 other unfused Im proteins
[3] = target: T3, Flag-mCherry-ColKhan-Cys-6His (Photorhabdus khanii); assay: EIA 8 plex n° 1: colicin coated at 100 nM, Im-RLuc8 at 100 nM, luminescence; light bar alone, dark bar with the 7 other unfused Im proteins
[4] = target: Flag-mCherry-ColSyr-Cys-6His (Pseudomonas syringae B728A); assay: as above
[5] = target: T4, Flag-mCherry-ColErw-Cys-6His (Pectobacterium carotovorum); assay: EIA 8 plex n° 1: colicin coated at 100 nM, Im-RLuc8 alone at 100 nM, luciferase signal
Flag-mCherry-ColE9-6His [6] = target: T5, Flag-mCherry-ColE9-6His (Escherichia coli); assay: as above
T5 construct: also called Colicin E9

Flag-EmGFP-ColE7-6His [7] = target: T6, Flag-EmGFP-ColE7-6His (Escherichia coli); assay: as above
T6 construct: also called Colicin E7

[8] = target: T7, Flag-mCherry-ColLeaf-Cys-6His (Pseudomonas sp Leaf83); assay: EIA 8 plex n° 2: colicin coated at 100 nM, Im-RLuc8 alone at 100 nM, luciferase signal
Flag-mCherry-ColE9-6His [9] = target: T5, Flag-mCherry-ColE9-6His; assay: kinetics, literature value (Li W. et al., 2004) printed above the bar pair; unit from the legend paragraph 10
Flag-EmGFP-ColE2-6His [10] = target: T8, Flag-EmGFP-ColE2-6His (Escherichia coli); assay: as above
T8 construct: Coated on the plate or sprayed on the membrane; also called Colicin E2

Flag-EmGFP-ColE7-6His [11] = target: T6, Flag-EmGFP-ColE7-6His; assay: as above
Flag-mCherry-ColE8-6His [12] = target: T1, Flag-mCherry-ColE8-6His; assay: EIA 4 plex: colicin coated at 100 nM, Im-RLuc8 alone at 100 nM, luciferase signal (FIG. 1, light grey bars)
Flag-mCherry-ColE8-6His [13] = target: T1, Flag-mCherry-ColE8-6His; assay: EIA 8 plex n° 2: colicin coated at 100 nM, Im-RLuc8 alone at 100 nM, luciferase signal (FIG. 4, light grey bars)
[14] = target: T2, Flag-mCherry-ColAP41-Cys-6His; assay: EIA 8 plex n° 1: colicin coated at 100 nM, Im-RLuc8 alone at 100 nM, luciferase signal (FIG. 3, light grey bars)
[15] = target: T3, Flag-mCherry-ColKhan-Cys-6His; assay: EIA 8 plex n° 2: colicin coated at 100 nM, Im-RLuc8 at 100 nM, luminescence; light bar alone, dark bar with the 7 other unfused Im proteins
[16] = target: T7, Flag-mCherry-ColLeaf-Cys-6His; assay: as above
[17] = target: T4, Flag-mCherry-ColErw-Cys-6His; assay: EIA 8 plex n° 1: colicin coated at 100 nM, Im-RLuc8 at 100 nM, luminescence; light bar alone, dark bar with the 7 other unfused Im proteins
Flag-mCherry-ColE9-6His [18] = target: T5, Flag-mCherry-ColE9-6His; assay: as above
Flag-mCherry-ColE8-6His [19] = target: T1, Flag-mCherry-ColE8-6His; assay: as above
Flag-EmGFP-ColE2-6His [20] = target: T8, Flag-EmGFP-ColE2-6His; assay: as above
Flag-EmGFP-ColE7-6His [21] = target: T6, Flag-EmGFP-ColE7-6His; assay: as above
[22] = target: T2, Flag-mCherry-ColAP41-Cys-6His; assay: EIA 8 plex n° 2: colicin coated at 100 nM, Im-RLuc8 alone at 100 nM, luciferase signal (FIG. 4, light grey bars)
Flag-EmGFP-ColE2-6His [23] = target: T8, Flag-EmGFP-ColE2-6His; assay: EIA 8 plex n° 1: colicin coated at 100 nM, Im-RLuc8 alone at 100 nM, luciferase signal (FIG. 3, light grey bars)
[24] = target: T4, Flag-mCherry-ColErw-Cys-6His; assay: EIA 8 plex n° 2: colicin coated at 100 nM, Im-RLuc8 at 100 nM, luminescence; light bar alone, dark bar with the 7 other unfused Im proteins
[25] = target: T2, Flag-mCherry-ColAP41-Cys-6His; assay: EIA 8 plex n° 1: colicin coated at 100 nM, Im-RLuc8 at 100 nM, luminescence; light bar alone, dark bar with the 7 other unfused Im proteins
Flag-mCherry-ColE8-6His [26] = target: T1, Flag-mCherry-ColE8-6His; assay: kinetics, literature value (Li W. et al., 2004) printed above the bar pair; unit from the legend paragraph 10
Flag-EmGFP-ColE2-6His [27] = target: T8, Flag-EmGFP-ColE2-6His; assay: EIA 4 plex: colicin coated at 100 nM, Im-RLuc8 alone at 100 nM, luciferase signal (FIG. 1, light grey bars)
Flag-EmGFP-ColE2-6His [28] = target: T8, Flag-EmGFP-ColE2-6His; assay: EIA 8 plex n° 2: colicin coated at 100 nM, Im-RLuc8 alone at 100 nM, luciferase signal (FIG. 4, light grey bars)
Flag-EmGFP-ColE7-6His [29] = target: T6, Flag-EmGFP-ColE7-6His; assay: EIA 8 plex n° 1: colicin coated at 100 nM, Im-RLuc8 alone at 100 nM, luciferase signal (FIG. 3, light grey bars)
Flag-mCherry-ColE8-6His [30] = target: T1, Flag-mCherry-ColE8-6His; assay: EIA: colicin coated at 100 nM, Im-RLuc8 at 100 nM, luminescence; light bar alone, dark bar with the 3 other unfused Im proteins
Flag-EmGFP-ColE7-6His [31] = target: T6, Flag-EmGFP-ColE7-6His; assay: EIA 4 plex: colicin coated at 100 nM, Im-RLuc8 alone at 100 nM, luciferase signal (FIG. 1, light grey bars)

B1: Myc-RLuc8-Im8-6His (other)
chain: MGGEQKLISEEDLGGSASKVYDPEQRKRMITGPQWWARCKQMNVLDSFINYYDSEKHAENAVIFLHGNATSSYLWRHVVPHIEPVARCIIPDLIGMGKSGKSGNGSYRLLDHYKYLTAWFELLNLPKKIIFVGHDWGAALAFHYAYEHQDRIKAIVHMESVVDVIESWDEWPDIEEDIALIKSEEGEKMVLENNFFVETVLPSKIMRKLEPEEFAAYLEPFKEKGEVRRPTLSWPREIPLVKGGKPDVVQIVRNYNAYLRASDDLPKLFIESDPGFFSNAIVEGAKKFPNTEFVKVKGLHFLQEDAPDEMGKYIKSFVERVLKNEQKLELKNSISDYTETEFKKIIEDIINCEGDEKKQDDNLEHFISVTEHPSGSDLIYYPEGNNDGSPEAVIKEIKEWRAANGKSGFKQGLEGGGSHHHHHH
notes: Immunity protein fused to the luciferase RLuc8 as reporter; added in solution; also called Im8-RLuc8; Im8-Rluc8
- RLU (Flag-mCherry-ColE8-6His [1]): > 2e+06 RLU
- binding result [2]: no binding (tested: 100 nM)
- binding result [3]: no binding (tested: 100 nM)
- binding result [4]: no binding (tested: 100 nM)
- RLU [5]: > 100000 RLU
- RLU (Flag-mCherry-ColE9-6His [6]): > 100000 RLU
- RLU (Flag-EmGFP-ColE7-6His [7]): > 100000 RLU
- RLU [8]: > 100000 RLU
- Kd (Flag-mCherry-ColE9-6His [9]): 500 nM
- Kd (Flag-EmGFP-ColE2-6His [10]): 38 nM
- Kd (Flag-EmGFP-ColE7-6His [11]): 0.37 nM
- RLU (Flag-mCherry-ColE8-6His [12]): > 400000 RLU
- RLU (Flag-mCherry-ColE8-6His [13]): > 2.4e+06 RLU

B2: Myc-RLuc8-ImAP41-Avitag-6His (other)
chain: MGGEQKLISEEDLGGSASKVYDPEQRKRMITGPQWWARCKQMNVLDSFINYYDSEKHAENAVIFLHGNATSSYLWRHVVPHIEPVARCIIPDLIGMGKSGKSGNGSYRLLDHYKYLTAWFELLNLPKKIIFVGHDWGAALAFHYAYEHQDRIKAIVHMESVVDVIESWDEWPDIEEDIALIKSEEGEKMVLENNFFVETVLPSKIMRKLEPEEFAAYLEPFKEKGEVRRPTLSWPREIPLVKGGKPDVVQIVRNYNAYLRASDDLPKLFIESDPGFFSNAIVEGAKKFPNTEFVKVKGLHFLQEDAPDEMGKYIKSFVERVLKNEQKLPGGSDIKNNLSDYTESEFLEIIEEFFKNKSGLKGSELEKRMDKLVKHFEEVTSHPRKSGVIFHPKPGFETPEGIVKEVKEWRAANGLPGFKAGLEGGSGGSGLNDIFEAQKIEWHELEGGGSHHHHHH
notes: Immunity protein fused to the luciferase RLuc8 as reporter; added in solution; also called ImAP41-Rluc8
- RLU [14]: > 2e+06 RLU
- binding result [15]: no binding (tested: 100 nM)
- binding result [16]: no binding (tested: 100 nM)
- binding result [17]: no binding (tested: 100 nM)
- binding result (Flag-mCherry-ColE9-6His [18]): no binding (tested: 100 nM)
- binding result (Flag-mCherry-ColE8-6His [19]): no binding (tested: 100 nM)
- binding result [4]: no binding (tested: 100 nM)
- binding result (Flag-EmGFP-ColE2-6His [20]): no binding (tested: 100 nM)
- binding result (Flag-EmGFP-ColE7-6His [21]): no binding (tested: 100 nM)
- RLU [22]: > 2.4e+06 RLU

B3: Myc-RLuc8-Im2-6His (other)
chain: MGGEQKLISEEDLGGSASKVYDPEQRKRMITGPQWWARCKQMNVLDSFINYYDSEKHAENAVIFLHGNATSSYLWRHVVPHIEPVARCIIPDLIGMGKSGKSGNGSYRLLDHYKYLTAWFELLNLPKKIIFVGHDWGAALAFHYAYEHQDRIKAIVHMESVVDVIESWDEWPDIEEDIALIKSEEGEKMVLENNFFVETVLPSKIMRKLEPEEFAAYLEPFKEKGEVRRPTLSWPREIPLVKGGKPDVVQIVRNYNAYLRASDDLPKLFIESDPGFFSNAIVEGAKKFPNTEFVKVKGLHFLQEDAPDEMGKYIKSFVERVLKNEQKLELKHSISDYTEAEFLEFVKKICRAEGATEEDDNKLVREFERLTEHPDGSDLIYYPRDDREDSPEGIVKEIKEWRAANGKSGFKQGLEGGGSHHHHHH
notes: Immunity protein fused to the luciferase RLuc8 as reporter; added in solution; also called Im2-RLuc8; Im2-Rluc8
- RLU (Flag-EmGFP-ColE2-6His [23]): > 2e+06 RLU
- binding result [24]: no binding (tested: 100 nM)
- binding result [16]: no binding (tested: 100 nM)
- binding result [3]: no binding (tested: 100 nM)
- binding result [25]: no binding (tested: 100 nM)
- binding result [4]: no binding (tested: 100 nM)
- Kd (Flag-mCherry-ColE8-6His [26]): 18 nM
- Kd (Flag-EmGFP-ColE2-6His [10]): 3.9e-06 nM
- Kd (Flag-EmGFP-ColE7-6His [11]): 0.36 nM
- RLU (Flag-EmGFP-ColE2-6His [27]): > 400000 RLU
- RLU (Flag-EmGFP-ColE2-6His [28]): > 2.4e+06 RLU

B4: Myc-RLuc8-Im7-6His (other)
chain: MGGEQKLISEEDLGGSASKVYDPEQRKRMITGPQWWARCKQMNVLDSFINYYDSEKHAENAVIFLHGNATSSYLWRHVVPHIEPVARCIIPDLIGMGKSGKSGNGSYRLLDHYKYLTAWFELLNLPKKIIFVGHDWGAALAFHYAYEHQDRIKAIVHMESVVDVIESWDEWPDIEEDIALIKSEEGEKMVLENNFFVETVLPSKIMRKLEPEEFAAYLEPFKEKGEVRRPTLSWPREIPLVKGGKPDVVQIVRNYNAYLRASDDLPKLFIESDPGFFSNAIVEGAKKFPNTEFVKVKGLHFLQEDAPDEMGKYIKSFVERVLKNEQKLELKNSISDYTEAEFVQLLKEIEKENVAATDDVLDVLLEHFVKITEHPDGTDLIYYPSDNRDDSPEGIVKEIKEWRAANGKPGFKQGLEGGGSHHHHHH
notes: Immunity protein fused to the luciferase RLuc8 as reporter; added in solution; also called Im7-RLuc8; Im7-Rluc8
- RLU (Flag-EmGFP-ColE7-6His [29]): > 2e+06 RLU
- binding result [17]: no binding (tested: 100 nM)
- binding result [3]: no binding (tested: 100 nM)
- binding result [25]: no binding (tested: 100 nM)
- binding result [4]: no binding (tested: 100 nM)
- binding result (Flag-mCherry-ColE8-6His [30]): binds
- Kd (Flag-mCherry-ColE9-6His [9]): ~100000 nM
- Kd (Flag-EmGFP-ColE2-6His [10]): 14 nM
- RLU (Flag-EmGFP-ColE7-6His [31]): > 400000 RLU
